Here are results for 3 molecules from article PMC8183418.

In series [1] the target is T1, ISG20 (UniProt Q96AZ6 1-181). Description: EMSA.
In series [2] the target is T1, ISG20. Description: EMSA. The source holds these as a separate data set. (In general: In EMSA bound probe runs differently from free probe, usually more slowly.)

Read-outs that look alike come from different tables or passages of the source.

T1 sequence (Q96AZ6 whole entry): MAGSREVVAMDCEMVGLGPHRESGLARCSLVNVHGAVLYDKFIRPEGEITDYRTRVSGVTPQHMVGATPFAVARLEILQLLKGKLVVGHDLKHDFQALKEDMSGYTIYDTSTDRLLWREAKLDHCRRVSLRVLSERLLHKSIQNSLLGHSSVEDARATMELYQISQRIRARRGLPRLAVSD

Regarding CGGCGCTGAATCCTGCGGACGACC (ssDNA) [036: (+) ssDNA], in the series with ISG20 [1], the binding result was “binds”.

Consider GGTCGTCCGCAGGATTCAGCGCCG (ssDNA) [033: (-) ssDNA], for which, in the series with ISG20 [1], the binding result is “binds”.

GGTUGTUUGUAGGATTUAGUGUUG (ssDNA, all deoxycytidines replaced by deoxyuridine; U = dU) [035: dU-containing (-) ssDNA]: in the series with ISG20 [2], the binding result was “binds”.
